This is an account of results in PMC2933787.

Common to all, as to experiment: EMSA
(Mobility shift assays separate free from complexed probe on a gel.)

Data set [1] has as its target T1, DmTHAP (P element transposase THAP domain) (Drosophila melanogaster, UniProt Q7M3K2 1-77).
T1 sequence: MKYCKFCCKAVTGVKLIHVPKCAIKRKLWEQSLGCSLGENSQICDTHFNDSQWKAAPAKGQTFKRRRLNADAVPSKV

A further data set addresses T2, DmTHAP R66A (Drosophila melanogaster, UniProt Q7M3K2 1-77, R66A).
T2 sequence: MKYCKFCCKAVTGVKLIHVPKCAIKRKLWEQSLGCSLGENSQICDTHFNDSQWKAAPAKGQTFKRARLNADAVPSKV

Another data set concerns the target T3, DmTHAP Q42A (Drosophila melanogaster, UniProt Q7M3K2 1-77, Q42A).
T3 sequence: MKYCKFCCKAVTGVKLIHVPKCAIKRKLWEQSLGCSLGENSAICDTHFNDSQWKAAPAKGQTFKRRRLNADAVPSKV

A further data set deals with T4, DmTHAP H18A (Drosophila melanogaster, UniProt Q7M3K2 1-77, H18A).
T4 sequence: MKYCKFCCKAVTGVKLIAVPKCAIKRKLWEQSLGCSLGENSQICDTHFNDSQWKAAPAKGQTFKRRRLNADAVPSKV

The next data set concerns the target T5, DmTHAP H18A Q42A (Drosophila melanogaster, UniProt Q7M3K2 1-77, H18A;Q42A).
T5 sequence: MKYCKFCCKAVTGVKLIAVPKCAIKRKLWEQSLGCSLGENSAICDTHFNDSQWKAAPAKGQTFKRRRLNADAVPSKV

The target of the next data set is T6, DmTHAP dY2,K3 (Drosophila melanogaster, UniProt Q7M3K2 1-77, del2-3).
T6 sequence: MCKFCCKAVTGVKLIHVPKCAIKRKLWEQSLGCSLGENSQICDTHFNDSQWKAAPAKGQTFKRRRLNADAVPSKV

In a further data set the target is T7, DmTHAP R67A (Drosophila melanogaster, UniProt Q7M3K2 1-77, R67A).
T7 sequence: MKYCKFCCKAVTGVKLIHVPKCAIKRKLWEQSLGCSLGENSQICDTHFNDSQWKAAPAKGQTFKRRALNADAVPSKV

For a further data set, the target named is T8, DmTHAP R65A (Drosophila melanogaster, UniProt Q7M3K2 1-77, R65A).
T8 sequence: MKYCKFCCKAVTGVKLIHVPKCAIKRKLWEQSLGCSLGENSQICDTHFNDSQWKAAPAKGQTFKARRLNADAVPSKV

Another data set concerns the target T9, DmTHAP R65A R67A (Drosophila melanogaster, UniProt Q7M3K2 1-77, R65A;R67A).
T9 sequence: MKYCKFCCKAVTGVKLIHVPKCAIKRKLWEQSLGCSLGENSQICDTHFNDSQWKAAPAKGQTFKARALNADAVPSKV

B1: 15mer duplex with transposase site (dsDNA)
DNA 1: GAGGTTAAGTGGATGT
DNA 2: TACATCCACTTAAC
Regarding B1, the binding signal in data set [1] is 1 fold reduction in affinity vs WT (reference); with DmTHAP Q42A, ~15 fold reduction in affinity vs WT; with DmTHAP H18A it was ~12 fold reduction in affinity vs WT; in the data set with DmTHAP H18A Q42A it was ~20 fold reduction in affinity vs WT; with DmTHAP dY2,K3 it was ~3 fold reduction in affinity vs WT; in the data set with DmTHAP R67A, ~17 fold reduction in affinity vs WT. The binding signal with DmTHAP R65A is ~21 fold reduction in affinity vs WT; with DmTHAP R65A R67A, ~42 fold reduction in affinity vs WT. The binding result with DmTHAP R66A is on record as “no binding”.
